Legend:
[1] = molecular target: T1, PriL-CTD (Saccharomyces cerevisiae, UniProt P20457 316-512, del381-383); test: fluorescence anisotropy; 80 nM DNA; Buffer F: 20 mM HEPES pH 6.8, 150 mM KCl, 1 mM EDTA, 25 C; SPR in buffer F + 0.005% P20, 25 C; conditions: protein: recombinant, tags: N-terminal His6, removed by TEV
T1 sequence: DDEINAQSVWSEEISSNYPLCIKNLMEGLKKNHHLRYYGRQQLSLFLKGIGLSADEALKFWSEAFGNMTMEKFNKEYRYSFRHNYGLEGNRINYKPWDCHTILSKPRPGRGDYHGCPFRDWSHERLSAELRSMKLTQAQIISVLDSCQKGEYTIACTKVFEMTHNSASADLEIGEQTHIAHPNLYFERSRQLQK

[2] = molecular target: T2, DNA primase large subunit PriL, full length;DNA primase small subunit PriS (Saccharomyces cerevisiae;Saccharomyces …, UniProt P20457;P10363 1-528;1-409, |); test: fluorescence anisotropy; 20 nM DNA; Buffer F: 20 mM HEPES pH 6.8, 150 mM KCl, 1 mM EDTA, 25 C; SPR in buffer F + 0.005% P20, 25 C; conditions: protein: recombinant;recombinant; tags: ;; copies: 1;1; label: fluorescein; single strand
T2 sequence 1: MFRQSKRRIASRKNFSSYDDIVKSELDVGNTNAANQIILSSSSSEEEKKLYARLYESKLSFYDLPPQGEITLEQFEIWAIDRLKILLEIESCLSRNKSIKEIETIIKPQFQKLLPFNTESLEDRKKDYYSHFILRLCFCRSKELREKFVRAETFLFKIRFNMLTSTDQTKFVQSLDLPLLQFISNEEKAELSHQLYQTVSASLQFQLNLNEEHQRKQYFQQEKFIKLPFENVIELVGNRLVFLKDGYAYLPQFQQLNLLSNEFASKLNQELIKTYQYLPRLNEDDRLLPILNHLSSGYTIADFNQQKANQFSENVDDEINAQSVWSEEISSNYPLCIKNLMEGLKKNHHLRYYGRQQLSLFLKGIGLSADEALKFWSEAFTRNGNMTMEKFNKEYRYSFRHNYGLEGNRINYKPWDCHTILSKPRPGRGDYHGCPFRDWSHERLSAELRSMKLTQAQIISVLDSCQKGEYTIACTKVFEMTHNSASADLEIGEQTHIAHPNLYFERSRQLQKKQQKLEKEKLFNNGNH
T2 sequence 2: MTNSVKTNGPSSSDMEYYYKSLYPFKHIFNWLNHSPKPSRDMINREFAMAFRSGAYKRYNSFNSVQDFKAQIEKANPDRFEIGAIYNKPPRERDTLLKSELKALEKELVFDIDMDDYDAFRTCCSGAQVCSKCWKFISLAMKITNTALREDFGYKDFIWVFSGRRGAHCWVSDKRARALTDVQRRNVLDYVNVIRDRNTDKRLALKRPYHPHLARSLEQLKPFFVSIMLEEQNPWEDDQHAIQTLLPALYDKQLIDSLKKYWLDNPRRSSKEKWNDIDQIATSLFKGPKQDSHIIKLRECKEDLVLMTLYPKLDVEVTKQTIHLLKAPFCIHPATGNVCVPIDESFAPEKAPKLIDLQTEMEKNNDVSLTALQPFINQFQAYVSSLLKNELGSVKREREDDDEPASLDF

[3] = molecular target: T1, PriL-CTD; test: fluorescence anisotropy; Kd similar to the 70 µM of the mixed 20mer; data not shown; Buffer F: 20 mM HEPES pH 6.8, 150 mM KCl, 1 mM EDTA, 25 C; SPR in buffer F + 0.005% P20, 25 C; conditions: protein: recombinant; tags: N-terminal His6, removed by TEV; label: fluorescein; single strand

Binder: GGTGAGAGGAGAATGGAAGT (ssDNA) [ssDNA 20mer (fluorescein)]
- Kd ([1]; label: 5' fluorescein, single strand): 70 ± 0.2 µM

B1: dsDNA 20mer (fluorescein) (dsDNA)
DNA 1: GGTGAGAGGAGAATGGAAGT
DNA 2: ACTTCCATTCTCCTCTCACC
- Kd ([1]; label: 5' fluorescein on S2, the printed complement S1 carries 5' biotin, blunt): 178 ± 1.3 µM

Binder: TTTTTTTTTTTTTTTTTTTTTTTTTTTTTTTTTTTTTTTT (ssDNA) [poly(dT) 40mer]
- Kd [2]: 1.7 µM

Binder: TTTTTTTTTTTTTTTTTTTT (ssDNA) [poly(dT) 20mer]
- binding result [3]: binds

— PMC2852410, “Shared Active Site Architecture between the Large Subunit of Eukaryotic Primase and DNA Photolyase”
